Consider 2 molecules from PMC12680531.

This assay deals with T1, cell surface TM4SF4 of human cancer cell lines, P48230.
T1 chain: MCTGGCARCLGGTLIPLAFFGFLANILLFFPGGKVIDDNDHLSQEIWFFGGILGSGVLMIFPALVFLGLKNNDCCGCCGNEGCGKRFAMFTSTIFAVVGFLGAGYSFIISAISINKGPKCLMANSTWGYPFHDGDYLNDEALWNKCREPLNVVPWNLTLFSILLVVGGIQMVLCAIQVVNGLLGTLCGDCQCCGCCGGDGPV
The experiment in a line: flow cytometry on cells. Particulars: chain shown with the change, n = 3, parent: est. 100, read off a plot. (Flow cytometry measures light scatter and fluorescence of single cells or particles in a stream.)

B1: humanized 2B7 antibody Hz2B7-1.1 L:N31V (protein)
chain 1: EITLKESGPTLVKPTQTLTLTCTFSGFSLSTYGIGVSWIRQPPGKALEWLAHIWWNDNKYYNTALKSRLTITKDTSKNQVVLTMTNMDPVDTATYYCARKEGSSAPFAYWGQGTLVTVSS
chain 2: DIVMTQSPDSLAVSLGERATINCKSSQSLLVSSNQKNYLAWYQQKPGQPPKLLIYFASTRESGVPDRFSGSGSGTDFTLTISLMQAEDVAVYYCQQHYRTPPTFGQGTKVEIK
With B1, the percent of parent stood at 97% (A549 cells) and 87% (Calu-3 cells).

B2: humanized 2B7 antibody Hz2B7-1.1 L:N31F (protein)
chain 1: EITLKESGPTLVKPTQTLTLTCTFSGFSLSTYGIGVSWIRQPPGKALEWLAHIWWNDNKYYNTALKSRLTITKDTSKNQVVLTMTNMDPVDTATYYCARKEGSSAPFAYWGQGTLVTVSS
chain 2: DIVMTQSPDSLAVSLGERATINCKSSQSLLFSSNQKNYLAWYQQKPGQPPKLLIYFASTRESGVPDRFSGSGSGTDFTLTISLMQAEDVAVYYCQQHYRTPPTFGQGTKVEIK
For the molecule B2, the percent of parent by setting is: (A549 cells) 130%; (Calu-3 cells) 100%.
